Measurements from the DeepSol protein solubility set.

Assay: soluble on expression in E. coli; label from the status in PepcDB or PDB records

Sequence | soluble on expression in E. coli
MGSDKIHHHHHHMEAYQFIKDYKAHDPYRKSFIQLAKRIFNIDFAPWYEQGFWNDNYICYSYVDKHEVIANVSVNKMELIINGAKQEAIQIGTVMTAPEYRRQGLAKQLLQKALDDYDSAYDLYFLAANQEAIPLYETCGFQLIEENCYEIDMAGYTLLDKPLRRADVSPEAMVEVKKGSCPLSTVLSAQGDEHILMFYYTAGFRDFIYQVNKDVHVMFQLEGDVLHLYDIFSPAKVNVEQLVEQIAPLATKTVVCHFTPDHSVKQLTAKIDSTSSWMVRTTTKGFPPLARFPKISQA | not soluble
MSLSDTIPVFDGHNDFLLRLLRNPANRETIWLKGDGTGHLDLPRMKEGGFAGGFFAIYVPSPQAHDAAHFEAMMDAPPFELPLPPMIRAEQAQPVALAMAGHLLWMERAARGRFKVCRTAAEVRSCHADGIVSGIMHMEGAEAIGADLDALHLFHSLGLRSLGPVWSRPTVFGHGVPFRFPGSPDTGEGLTEAGRRLVAECNRLKIMLDLSHLNEKGFDDVARLSDAPLVATHSNAHAVTPSTRNLTDRQLAMIRESRGMVGLNFATSFLREDGRRSAEMGWEPVLRHLDHLIDRLGEDHVGMGSDFDGATIPQGIADVTGLPALQAAMRAHGYDEPLMRKLCHENWYGLLERTWGEGHHHHHH | soluble
MGSDKIHHHHHHMLDHLCVNMLSSCPRCASSSGNRASRRYPMRINADFTRRAAVHFDQTDWVPSPAPGVERKMLDRIGAEVARATTIVRFAPGSAFSAHTHDGGEEYLVLDGVFQDELGDFPVGSYVRNPPTSSHTPATEPGATILVKLHQFDPADRTEVRRSINGKSDETLFSDSHEEVRLESWAAGAQVTRDLPGGIEVFVLEGGFQEGGETFSRWDWLRLPPGARLDLTAGAEGARVWVKSGHLAAMV | not soluble
MGQRKYGGPPPGWDSTPPERGCEIFIGKLPRDLFEDELIPLCEKIGKIYEMRLMMDFNGNNRGYAFVTFSNKQEAKNAIKQLNNYEIRTGRLLGVCASVDNCRLFVGGIPKTKKREEILSEMKKVTEGVVDVIVYPSAADKTKNRGFAFVEYESHRAAAMARRRLLPGRIQLWGHPIAVDWAEPEVEVDEDTMSSVKILYVRNLMLSTSEEMIEKEFNSIKPGAVERVKKIRDYAFVHFSNREDAVEAMKALNGKVLDGSPIEVTLAKPVDKDSYVRYTRGTGGRNTMLQGEYTYPLSHVYDTTTTYLGAPVFYTPQAYAAIPSLHFPATKGHLSNRALIRTPSVRGNTS | soluble
MHVGIVAQRGNERATSLAGEIREQLRALEVTVWVDTATAEALACAGECGRDTTAFTDCDLVVSIGGDGTFLFAARGAGATPILGVNLGEVGFLNAVAPADAVEAVREEVNRYRETGAVRCREVPRVVAAGDGWASTPALNEVAIQGEQRGHGHGVAVDVRVDGSQYEATRADGVLVATPTGSTAYNLSEGGPLVQPSVDALVVTEMCGADALPPLVTGLDSEIRIRVETLDDGGEGRVVVASDGGRLTRVDPPVEMTVTAADEPARVAGPAADFFEALSKLELEHHHHHH | not soluble
MSRQPKPARLAGGALALGLLLGLPNPVEAAQDNGMEHSAMDHGAMPGMDHGAASPAPAQPMEHRGMDHGRMPGMSHAARQPPAQAASSQSRTPIPVPTEADRRAAFPPLEGHKVHDSALNSFFLLDQLEYQDADDGSALAWDASGWIGGDINRLWLRSEGERLDGKTEDAEVQALFGHAIGPWWDLVAGVRQDFKPGSPQTWAAFGVQGLALYDFEAEVTAFLGENGQSALRLEGEYDILLTNRLILQPSAEVNLYGRNDPARGIGSGLADSELGLRLRYEIRREFAPYIGVTWNRSYGNSADLARAEGEDDDEARFVAGIRMWFLEHHHHHH | not soluble
MRSAFRVIRTVREKHACTQCDAIVQAPAPSRPIERGIAGPGLLARVLTSKYAEHTPLYRQSEIYGRQGVELSRSLLSGWVDACCRQLSPLEEALHGYVLTDGKLHADDTPVPVLLPGNKKTKTGRLWTYVRDDRNAGSTLAPAVWFAYSPDRKGIHPQTHLAGFSGVLQADAYAGFNELYRDGRITEAACWAHARRKIHDVHVRTPSALTEEALKRIGELYAIEAEIRGMTAEQRLAERQLKTKPLLKSLESWLREKMKTLSRHSELAKAFAYALNQWPALTYYADDGWAEADNNIAENALRMVSLGRKNYLFFGSDHGGERGALLYSLIGTCKLNGVEPESYLRYVLDVIADWPINRVGELLPWRVALPTE | not soluble
MAKDIRVLLYYLYTPIENAEQFAADHLAFCKSIGLKGRILVADEGINGTVSGDYETTQKYMDYVHSLPGMEELWFKIDEENEQAFKKMFVRYKKEIVHLGLEDNDFDNDINPLETTGAYLSPKEFKEALLDKDTVVLDTRNDYEYDLGHFRGAIRPDIRNFRELPQWVRDNKEKFMDKRVVVYCTGGVRCEKFSGWMVREGYKDVGQLHGGIATYGKDPEVQGELWDGKMYVFDERIAVDVNHVNPTIVGKDWFDGTPCERYVNCGNPFCNRRILTSEENEDKYLRGCSHECRVHPRNRYVSKNELTQAEVIERLAAIGESLDQAATVLEHHHHHH | soluble
MGSDKIHHHHHHLAADQDTETQEMLLVMSDLDAQGFDQRRINLTQAELYACIEWLARFHAMFAYEAFPKEDALDDASYDGLWPIGTYWHLATRPDELEVMTDSPLKNATEAIDARLNQARFQTLVHGDAKVANFCFHKEVESLGVNGVAAVDFQYVGAGIGVKDFIYLLGSCLDEAQLVTIYDAACSHYFKSLKQQLSGRWAAEQIEALVAEWSDLLPFAWADFERFLAGWQPQHHKRNGFSQDMTQRVLKALGSVR | not soluble
MGITLGKKQLNKGRVSLYLNYSYNGKRRKEYLGIILDAPTSAERRAENRNKVLIARQIKAKKELEFLSVEYHLNDIENTFDDILPTDKSNVPDFYILIGQYLDTYHKKDKKMVRACITHLRLFTRKKSLPITLLTKDFCINFLEYLRDHLRGNTPIGYFKKFKMCINKCIEKKLMTSNPTDGIRLMQFDEVTKAILSLKEIQKLAITPCPNNEVKRAFLFSCYCGLRWCDVHQLQYKDIDFSSNRLTILQQKVQSHSKNAILHLNLNHTAIKLLQRHKGINEELVFGLPSYSYTL | not soluble
MIDLSKTVFYTSIDIGSRYIKGLVLGKRDQEWEALAFSSVKSRGLDEGEIKDAIAFKESVNTLLKELEEQLQKSLRSDFVISFSSVSFEREDTVIERDFGEEKRSITLDILSEMQSEALEKLKENGKTPLHIFSKRYLLDDERIVFNPLDMKASKIAIEYTSIVVPLKVYEMFYNFLQDTVKSPFQLKSSLVSTAEGVLTTPEKDRGVVVVNLGYNFTGLIAYKNGVPIKISYVPVGMKHVIKDVSAVLDTSFEESERLIITHGNAVYNDLKEEEIQYRGLDGNTIKTTTAKKLSVIIHARLREIMSKSKKFFREVEAKIVEEGEIGIPGGVVLTGGGAKIPRINELATEVFKSPVRTGCYANSDRPSIINADEVANDPSFAAAFGNVFAVSENPYEETPVKSENPLKKIFRLFKELME | soluble
MSLTNVAEDQLTAQAVAPPTEASAALEPALETPESPVETLKTSISASRRVRARLARRMTAQRSTTNPVLEPLVAVHREIYPKADLSILQRAYEVADQRHASQLRQSGDPYITHPLAVANILAELGMDTTTLVAALLHDTVEDTGYTLEALTEEFGEEVGHLVDGVTKLDRVVLGSAAEGETIRKMITAMARDPRVLVIKVADRLHNMRTMRFLPPEKQARKARETLEVIAPLAHRLGMASVKWELEDLSFAILHPKKYEEIVRLVAGRAPSRDTYLAKVRAEIVNTLTASKIKATVEGRPKHYWSIYQKMIVKGRDFDDIHDLVGVRILCDEIRDCYAAVGVVHSLWQPMAGRFKDYIAQPRYGVYQSLHTTVVGPEGKPLEVQIRTRDMHRTAEYGIAAHWRYKEAKGRNGVLHPHAAAEIDDMAWMRQLLDWQREAADPGEFLESLRYDLAVQEIFVFTPKGDVITLPTGSTPVDFAYAVHTEVGHRCIGARVNGRLVALERKLENGEVVEVFTSKAPNAGPSRDWQQFVVSPRAKTKIRQWFAKERREEALETGKDAMAREVRRGGLPLQRLVNGESMAAVARELHYADVSALYTAIGEGHVSAKHVVQRLLAELGGIDQAEEELAERSTPATMPRRPRSTDDVGVSVPGAPGVLTKLAKCCTPVPGDVIMGFVTRGGGVSVHRTDCTNAASLQQQAERIIEVLWAPSPSSVFLVAIQVEALDRHRLLSDVTRALADEKVNILSASVTTSGDRVAISRFTFEMGDPKHLGHLLNAVRNVEGVYDVYRVTSEGHHHHHH | not soluble
MRVVIVGAGLAGLAAAVDLVDAGHRVEIYESRPFVGGKVSSWQDADGNHIEMGLHVFFYNYANLFELMTKVGAIANLLPKEHTHTFINRGGQVGELDFRFPLGAPFNGLKAFFTTRQLSAADKFFNAIALGTSPVVRGLVDYEGAMRQIRALDCMSFAEWFRRHGGSENSLKRLWNPISYALGFIDTEHMSARCMLTIFMMFAAKTTASRLNMLKGSPAEYLLKPLVNYIEARGAKIHLRRRVKEILFRGEDASTWRVEGLVIPRGEALETVTADAYLCACDVPGIQRLIPEAWRSHPTFDNIFKLEAVPVATVQLRFDGWVTELQDPRKQKQVAATGIDNLLYTADADFSCFADLALTSPADYYREGQGSLLQVVLTPGDPFIKASNEEIAQHVLRQVHELFPSSRHLNMTWYSVVKLAQSLYREAPGMDPYRPPQKTPVPNFYLAGSYTQQDYIDSMEGATMSGRQAAQAILAGGHPLEHHHHHH | soluble
MGSDKIHHHHHHVKIRLALPQDVDLLAMLEKKHLNDELASANMGLQGQAFSHSELSELVQRHWVVVAQVEQQIVGYVIAGRWGFFEHWPIYRTLLNRLGQLDWDGPKLTKTNSCQYGPIWVQQAYRGQGIFEALVSEIRRQVAPHFSYMLTFIAEDNERSFAAHSGKAHMQVVDFFTVSARDYYLMAAKTQA | not soluble
MASHWMIYGANGYTGRLVAEQAQREGLTPLLGGRNPAALHALGSQLGLECRVFDLGDPQACREALDQVKVVAHCAGPFSATSTPMIAACRAAGTHYVDITGEIAVFEQAHAGDAEAREAGIVVCPGVGFDVIPTDCLAACLKEALPDAQRLALGFDTGSGLSTGTAKTSVEGLKFGGKIRENGRLRDVPLGYKRRDIDFGRGLRHAVTIPWGDVATAYYSTGIPDIEVYLPAPPLLALGMRLIDPLRPLLGRQRVQDWLKGQVDKRIAGPDQAARERLRTWVWGEARNARGERRTARLETANVYDLTLHGVLLAVRHLLDYQGPGGYFTPSRLLGARCVESLPGSGRITVIG | not soluble
MASGASATQRIPSKRQTLDEAYAPPANFLEIEVINPITHGVGKMRYTDYEIRMRSNLPVFKQKESSVRRRYSDFEWVRAELERDSKIVVPTLPGKSFKRQLPFRSDDGIFEEEFIENRRKALELFINKVAGHPLAQNERSLHIFLQEPTIDKNYVPGKIRTA | soluble
GPGSMSNSGCGLPGDVDPDLPLTPDGVTYHVACSSERLADRIILVGDPDRVKMVSTYLDAGSIVYEASHREIKVVTGAYHGVPVTVLSTGMGTDNVEIVMNEVHILKEYDTQKRRWRARVGDDTPADPLETPFDPSRVKLIRVGTCGTPNDAVQIGCLAITRYAVGMDNTCQYYDAPAVNHTVDVKEVLAKVQATSLGKVQVYATKAAPAITQGLVDACTALNRKVGVSEQQPYYVGTTCSGSGFYGCQGRSVGRFRGHLTVPHLTEELGDLRFNVSEGEQRVANIEMENSALCYLSNLLGYQAGTVCVVIARRSRTNRAFATPEQLAKGLSHAITIALETLIKE | not soluble
